The text below walks through data of patent publication EP4810519A2.

Assay [1] addresses human CD3 (human) (UniProt P07766). Kind of assay: Biacore; glofitamab formulations F2 and F5 after storage at 40°C, relative to initial. In general terms: SPR reads the build-up and loss of mass on a sensor chip optically.
The target is the same in assay [2]. In words: Biacore; glofitamab formulations F1, F3 and F4 after storage at 40°C, relative to initial.

Sequence of UniProt P07766 (P07766 23-126): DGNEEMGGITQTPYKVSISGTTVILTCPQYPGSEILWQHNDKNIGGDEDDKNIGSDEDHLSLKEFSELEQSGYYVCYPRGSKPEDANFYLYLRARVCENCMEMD

On to glofitamab (bispecific antibody), for which the loss of CD3 binding in assay [1] is under 50%; in assay [2] it was 10 to 20%.
